Several values for one entry are separate records, joined by “and”; a condition that tells them apart may be missing. Identical values can stand only once.
What was measured:
[1] = target: E6AP LXXLL motif (Homo sapiens) (UniProt Q05086); experiment: SPR; conditions: cited from earlier work
[2] = target: E6APwt, 16-mer LXXLL motif peptide of E6AP; experiment: SPR; Biacore T200, 25 °C; biotinylated peptide reversibly captured on CAP chip (Biotin CAPture kit), MBP-E6 as analyte in two-fold dilutions from 10 µM; Tris 50 mM pH 8, NaCl 400 mM, DTT 2 mM, 0.005% polysorbate 20; steady-state analysis, 1:1 model; protein samples purified on resin N1 or N2
[3] = target: the molecule itself; experiment: SEC; analytical SEC on Superdex 200 Increase 5/150 GL in Buffer A (Tris 50 mM pH 8, NaCl 400 mM, DTT 2 mM), A280; monomer and oligomer peaks assigned by column calibration; samples from different resins, elution methods and contact times

HPV16 E6 (from UniProt P03126)
Kd [1]: 4150 nM

MBP-fused HPV16 E6 F47R 4C/4S (natural protein)
Kd [2]: 1600 nM and 2000 nM

B1: MBP-fused HPV8 E6 (natural protein)
chain: MDGQDKASNLDTNKDELPSTIKELAEALGIPLQDCLVPCNFCGNFLDFLELCEFDKKRLCLIWKNYVVTACCRCCCVATATFEFNEYYEQTVLGRDIELATGRSIFEIDVRCQNCLSFLDIIEKLDCCGRGRPFHKVRGGWKGVCRLCKHLYHDW
notes: Printed order of the fusion: MBP-6His-TEV site-E6 (vector pETM-41, NcoI/Acc65I sites); tags were not cleaved off; Expected MW 60.9 kDa; also called MBP-8E6; not shown: MBP, N-terminal, kept
binding result [3]: binds
